Results reported in patent US20190240330A1.

What was measured:
[1] = target: human epidermal growth factor receptor 1 (EGFR1), on the surface of HSC-2 and FaDu tumor cells (human) (UniProt P00533); assay: flow cytometry, AlexaFluor488-labeled compound 5 ug/ml, 3 h at +37 C, HSC-2 cells; cell surface bound plus internalized, normalized to degree of labeling
[2] = target: human epidermal growth factor receptor 1 (EGFR1), on the surface of HSC-2 and FaDu tumor cells (human) (UniProt P00533); assay: flow cytometry, AlexaFluor488-labeled compound 5 ug/ml, 3 h at +37 C, FaDu cells; cell surface bound plus internalized, normalized to degree of labeling
[3] = target: human epidermal growth factor receptor 1 (EGFR1), on the surface of HSC-2 and FaDu tumor cells (human) (UniProt P00533); assay: tritium-labeled compound 5 ug/ml, 3 h at +37 C, FaDu cells, scintillation counting of cell lysate; internalized plus cell surface bound; mean +/- S.D. of three

| Normalized mean fluorescence intensity [1] | Normalized mean fluorescence intensity [2] | % internalized/100000 cells [3] | Substance |
| --- | --- | --- | --- |
| 823 | 443 |  | Control-F(ab')2 (F(ab')2 fragment of omalizumab) |
| 1160 | 970 |  | Control-Fab (Fab fragment of omalizumab) |
| 700 |  | 0.01% | Control-mAb (omalizumab, anti-IgE) (antibody) |
